Values quoted from earlier work as cited in publication PMC6289583.

Columns and labels:
Moesin = Moesin (UniProt P26038)
ICAM-2 (Homo sapiens) = ICAM-2 (Homo sapiens) (UniProt P13598)
EBP50 (Homo sapiens) = EBP50 (Homo sapiens) (UniProt O14745); assay: SPR
EBP50 (Homo sapiens), sequence (O14745 2-358): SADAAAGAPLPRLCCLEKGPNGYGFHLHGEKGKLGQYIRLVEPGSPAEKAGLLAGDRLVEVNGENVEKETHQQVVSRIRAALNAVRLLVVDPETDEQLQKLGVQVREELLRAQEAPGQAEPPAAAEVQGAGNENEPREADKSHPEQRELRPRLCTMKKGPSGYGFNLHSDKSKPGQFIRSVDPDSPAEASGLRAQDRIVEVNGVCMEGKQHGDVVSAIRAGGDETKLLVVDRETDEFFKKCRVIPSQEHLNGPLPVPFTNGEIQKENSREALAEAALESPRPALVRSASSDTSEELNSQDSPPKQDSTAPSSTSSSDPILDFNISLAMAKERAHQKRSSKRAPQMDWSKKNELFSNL

Ezrin, sequence (P15311 whole entry): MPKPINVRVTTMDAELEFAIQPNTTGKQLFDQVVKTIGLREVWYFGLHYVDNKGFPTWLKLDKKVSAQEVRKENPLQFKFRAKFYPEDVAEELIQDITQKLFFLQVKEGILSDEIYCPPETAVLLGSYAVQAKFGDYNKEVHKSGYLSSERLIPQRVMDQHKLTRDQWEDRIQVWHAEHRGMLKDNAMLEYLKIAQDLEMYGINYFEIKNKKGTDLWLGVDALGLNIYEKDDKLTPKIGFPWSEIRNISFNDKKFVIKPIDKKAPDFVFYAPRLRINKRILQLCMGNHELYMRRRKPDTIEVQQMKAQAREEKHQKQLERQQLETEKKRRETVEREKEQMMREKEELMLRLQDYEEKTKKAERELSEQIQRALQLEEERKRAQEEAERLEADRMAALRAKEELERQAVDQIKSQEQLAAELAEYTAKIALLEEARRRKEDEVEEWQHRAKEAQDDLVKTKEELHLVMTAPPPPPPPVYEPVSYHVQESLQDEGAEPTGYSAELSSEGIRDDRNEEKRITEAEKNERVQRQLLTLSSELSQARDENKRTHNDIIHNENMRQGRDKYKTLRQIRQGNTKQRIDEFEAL
ICAM-2 (Homo sapiens), sequence (P13598 25-275): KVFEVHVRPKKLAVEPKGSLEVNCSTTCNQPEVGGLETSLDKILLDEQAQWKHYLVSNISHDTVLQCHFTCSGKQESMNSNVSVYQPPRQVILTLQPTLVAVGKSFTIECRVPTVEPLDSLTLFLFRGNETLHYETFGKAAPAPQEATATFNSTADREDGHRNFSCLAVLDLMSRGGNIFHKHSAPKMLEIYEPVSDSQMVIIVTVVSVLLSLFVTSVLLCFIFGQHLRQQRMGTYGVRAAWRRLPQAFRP
CD44 cytoplasmic domain, sequence (P16070 671-742): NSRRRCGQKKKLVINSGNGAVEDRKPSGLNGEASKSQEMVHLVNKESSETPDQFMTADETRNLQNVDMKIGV
Moesin, sequence (P26038 2-577): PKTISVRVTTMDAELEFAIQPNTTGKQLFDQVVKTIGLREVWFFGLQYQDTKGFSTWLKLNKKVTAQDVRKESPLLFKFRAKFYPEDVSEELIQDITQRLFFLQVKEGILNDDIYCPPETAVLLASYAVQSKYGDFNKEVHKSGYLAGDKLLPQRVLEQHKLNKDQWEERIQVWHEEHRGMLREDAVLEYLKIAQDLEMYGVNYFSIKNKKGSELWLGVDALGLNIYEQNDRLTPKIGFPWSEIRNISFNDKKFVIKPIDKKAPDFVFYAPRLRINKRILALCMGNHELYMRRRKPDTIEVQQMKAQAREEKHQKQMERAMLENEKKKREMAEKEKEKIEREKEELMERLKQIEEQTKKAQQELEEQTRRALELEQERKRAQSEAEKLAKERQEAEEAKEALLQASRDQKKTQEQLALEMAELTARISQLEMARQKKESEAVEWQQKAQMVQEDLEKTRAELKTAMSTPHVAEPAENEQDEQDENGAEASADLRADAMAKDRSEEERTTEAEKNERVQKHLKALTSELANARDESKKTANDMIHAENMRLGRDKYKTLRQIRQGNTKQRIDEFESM

Kd (Moesin) | Kd (ICAM-2 (Homo sapiens)) | Kd (EBP50 (Homo sapiens)) | Substance
9.3 nM | – | – | CD44 cytoplasmic domain (from UniProt P16070)
– | 330 nM | 58 nM | Ezrin (from UniProt P15311)
